pKd, pKi: −log10 of the molar value.
Assays:
FXa [1] = molecular target: FXa
human fibrinogen (human) = human fibrinogen (human) (UniProt P02671); assay: other fluorescence titration; thrombin, FXa or fibrinogen (0.2 µM each) incubated with lunathrombase (0.2-1.0 µM in the methods, 0.2-1.4 µM in the legend) for 3 min at room temperature; excitation 280 nm, emission 300-425 nm; one site saturation binding curve
human thrombin (human) [2] = assay: as above
FXa [3] = assay: as above
human thrombin (human) [4] = assay: enzyme inhibition kinetics (amidolytic activity); thrombin (36.6 nM; 3.0 µl, 10 NIH/ml) with chromogenic substrate T1637 or FXa (0.13 µM) with F3301, lunathrombase 0-0.4 µM; Michaelis-Menten fit; competitive model for thrombin, non-competitive model for FXa
FXa [5] = assay: as above

Work on lunathrombase (enzyme) yielded an inhibition of prothrombin (1.4 µM) activation by FXa (0.13 µM) pre-incubated with lunathrombase (0.2 µM), SDS-PAGE (FXa [1]) of 100%, a pKd (human fibrinogen (human)) of 6.26 and a pKd (human thrombin (human) [2]) of 6.60. It also gave a pKd (FXa [3]) of 5.72, a pKi (human thrombin (human) [4]) of 7.57 and a pKi (FXa [5]) of 7.99.
